Results reported in US20200209240A1.

Tests used:
human CD19 (human) [1] = molecular target: human CD19 (human) (UniProt P15391); assay: dSTORM, isotype control on NALM-6 cells (background), antibody at 5 × 10^-3 µg/ml
human CD19 (human) [2] = molecular target: human CD19 (human) (UniProt P15391); assay: dSTORM, isotype control on NALM-6 cells (background), antibody at 0.5 µg/ml
human CD19 (human) [3] = molecular target: human CD19 (human) (UniProt P15391); assay: dSTORM, isotype control on NALM-6 cells (background), antibody at 10 µg/ml
human CD19 (human) [4] = molecular target: human CD19 (human) (UniProt P15391); assay: dSTORM, isotype control on NALM-6 cells (background), antibody at 0.05 µg/ml
human CD19 (human) [5] = molecular target: human CD19 (human) (UniProt P15391); assay: dSTORM, isotype control on NALM-6 cells (background), antibody at 2.5 µg/ml
human CD19 (human) [6] = molecular target: human CD19 (human) (UniProt P15391); assay: dSTORM, isotype control on NALM-6 cells (background), antibody at 5 × 10^-4 µg/ml
human CD19 (human) [7] = molecular target: human CD19 (human) (UniProt P15391); assay: dSTORM, isotype control on NALM-6 cells (background), antibody at 5 µg/ml
human CD19 (human) [8] = molecular target: human CD19 (human) (UniProt P15391); assay: dSTORM, isotype control on NALM-6 cells (background), antibody at 5 × 10^-5 µg/ml
human CD19 (human) [9] = molecular target: human CD19 (human) (UniProt P15391); assay: dSTORM on NALM-6 cells, antibody at 5×10^-5 µg/ml
human CD19 (human) [10] = molecular target: human CD19 (human) (UniProt P15391); assay: dSTORM, antibody titration on NALM-6 cells, antibody at 5 × 10^-4 µg/ml
human CD19 (human) [11] = molecular target: human CD19 (human) (UniProt P15391); assay: dSTORM on NALM-6 cells, antibody at c≥2.5 µg/ml
human CD19 (human) [12] = molecular target: human CD19 (human) (UniProt P15391); assay: dSTORM, antibody titration on NALM-6 cells, antibody at 0.5 µg/ml
human CD19 (human) [13] = molecular target: human CD19 (human) (UniProt P15391); assay: dSTORM, antibody titration on NALM-6 cells, antibody at 5 × 10^-3 µg/ml
human CD19 (human) [14] = molecular target: human CD19 (human) (UniProt P15391); assay: dSTORM, antibody titration on NALM-6 cells, antibody at 5 × 10^-5 µg/ml
human CD19 (human) [15] = molecular target: human CD19 (human) (UniProt P15391); assay: dSTORM, antibody titration on NALM-6 cells, antibody at 5 µg/ml
human CD19 (human) [16] = molecular target: human CD19 (human) (UniProt P15391); assay: dSTORM, antibody titration on NALM-6 cells, antibody at 0.05 µg/ml
human CD19 (human) [17] = molecular target: human CD19 (human) (UniProt P15391); assay: dSTORM, antibody titration on NALM-6 cells, antibody at 10 µg/ml
human CD19 (human) [18] = molecular target: human CD19 (human) (UniProt P15391); assay: dSTORM, antibody titration on NALM-6 cells, antibody at 2.5 µg/ml

Chain of UniProt P15391 (P15391 20-556): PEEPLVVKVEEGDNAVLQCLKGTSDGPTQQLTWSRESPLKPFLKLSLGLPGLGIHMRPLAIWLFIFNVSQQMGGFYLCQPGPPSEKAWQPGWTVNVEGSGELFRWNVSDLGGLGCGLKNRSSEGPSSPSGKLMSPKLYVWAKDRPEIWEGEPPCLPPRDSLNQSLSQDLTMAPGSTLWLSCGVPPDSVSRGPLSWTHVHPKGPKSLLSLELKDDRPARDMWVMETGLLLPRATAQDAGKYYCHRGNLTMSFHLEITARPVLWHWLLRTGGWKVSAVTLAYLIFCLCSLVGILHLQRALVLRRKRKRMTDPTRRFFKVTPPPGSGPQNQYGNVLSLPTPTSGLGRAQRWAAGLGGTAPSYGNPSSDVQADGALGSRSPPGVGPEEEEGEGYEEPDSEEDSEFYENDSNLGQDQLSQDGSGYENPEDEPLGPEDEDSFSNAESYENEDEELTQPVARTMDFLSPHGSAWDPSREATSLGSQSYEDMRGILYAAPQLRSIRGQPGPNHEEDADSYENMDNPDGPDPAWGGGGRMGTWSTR

| Molecules per cell (molecules per cell) (human CD19 (human) [1]) | Molecules per cell (molecules per cell) (human CD19 (human) [2]) | Molecules per cell (molecules per cell) (human CD19 (human) [3]) | Molecules per cell (molecules per cell) (human CD19 (human) [4]) | Molecules per cell (molecules per cell) (human CD19 (human) [5]) | Molecules per cell (molecules per cell) (human CD19 (human) [6]) | Molecules per cell (molecules per cell) (human CD19 (human) [7]) | Molecules per cell (molecules per cell) (human CD19 (human) [8]) | CD19 molecules/µm^2 at the detection limit (CD19 molecules/µm^2) (human CD19 (human) [9]) | Molecules per cell (molecules per cell) (human CD19 (human) [10]) | CD19 molecules/µm^2 under saturating conditions (CD19 molecules/µm^2) (human CD19 (human) [11]) | Molecules per cell (molecules per cell) (human CD19 (human) [12]) | Molecules per cell (molecules per cell) (human CD19 (human) [13]) | Molecules per cell (molecules per cell) (human CD19 (human) [14]) | Molecules per cell (molecules per cell) (human CD19 (human) [15]) | Molecules per cell (molecules per cell) (human CD19 (human) [16]) | Molecules per cell (molecules per cell) (human CD19 (human) [17]) | Molecules per cell (molecules per cell) (human CD19 (human) [18]) | Substance |
| --- | --- | --- | --- | --- | --- | --- | --- | --- | --- | --- | --- | --- | --- | --- | --- | --- | --- | --- |
| 1.3 | 44 | 72 | 7.1 | 50 | 0.8 | 85 | 0 |  |  |  |  |  |  |  |  |  |  | AF647 isotype control antibody (BioLegend) |
|  |  |  |  |  |  |  |  | 0.006 | 12 | 3.4 | 710 | 67 | 3.1 | 1860 | 182 | 1880 | 1780 | anti-CD19 antibody, clone HIB19, Alexa Fluor 647 conjugate (BioLegend) |
